Results reported in PMC9190012, “Heparin activation of protein Z-dependent protease inhibitor (ZPI) allosterically blocks protein Z activation through an extended heparin-binding site” (The Journal of Biological Chemistry, 2022).
Residue numbers refer to the chain shown, from its start. Names may count otherwise.

B1: D293A: ZPI mutant in the PZ-binding site hot spot residue (protein, UniProt Q9UK55 22-444, looked up, variant D293A)
Protein Z-dependent protease …: LAPSPQSPETPAPQNQTSRVVQAPKEEEEDEQEASEEKASEEEKAWLMASRQQLAKETSNFGFSLLRKISMRHDGNMVFSPFGMSLAMTGLMLGATGPTETQIKRGLHLQALKPTKPGLLPSLFKGLRETLSRNLELGLTQGSFAFIHKDFDVKETFFNLSKRYFDTECVPMNFRNASQAKRLMNHYINKETRGKIPKLFDEINPETKLILVDYILFKGKWLTPFDPVFTEVDTFHLDKYKTIKVPMMYGAGKFASTFDKNFRCHVLKLPYQGNATMLVVLMEKMGDHLALEAYLTTDLVETWLRNMKTRNMEVFFPKFKLDQKYEMHELLRQMGIRRIFSPFADLSELSATGRNLQVSRVLQRTVIEVDERGTEAVAGILSEITAYSMPPVIKVDRPFHFMIYEETSGMLLFLGRVVNPTLL
B2: K260A/R263A: ZPI helix H site double mutant (protein, UniProt Q9UK55 22-444, looked up, variant K260A R263A)
Protein Z-dependent protease …: B1 Protein Z-dependent protease … with K260A, R263A, A293D
B3: K308A: ZPI helix H site mutant (protein, UniProt Q9UK55 22-444, looked up, variant K308A)
Protein Z-dependent protease …: B1 Protein Z-dependent protease … with A293D, K308A
B4: R305A: ZPI helix H site mutant (protein, UniProt Q9UK55 22-444, looked up, variant R305A)
Protein Z-dependent protease …: B1 Protein Z-dependent protease … with A293D, R305A
B5: WT: recombinant wild-type protein Z-dependent protease inhibitor (serpin A10) expressed in Escherichia coli (protein, UniProt Q9UK55 22-444, looked up)
Protein Z-dependent protease …: B1 Protein Z-dependent protease … with A293D
B6: R310A: ZPI helix H site mutant (protein, UniProt Q9UK55 22-444, looked up, variant R310A)
Protein Z-dependent protease …: B1 Protein Z-dependent protease … with A293D, R310A
B7: K260A/R263A/K308A/R310A: ZPI helix H site quadruple mutant (protein, UniProt Q9UK55 22-444, looked up, variant K260A R263A K308A R310A)
Protein Z-dependent protease …: B1 Protein Z-dependent protease … with K260A, R263A, A293D, K308A, R310A

Target: T1, FXa (Homo sapiens, UniProt P00742)
T1 construct: purchased Enzyme Research Laboratories
T1 sequence (P00742 235-488 limits assumed): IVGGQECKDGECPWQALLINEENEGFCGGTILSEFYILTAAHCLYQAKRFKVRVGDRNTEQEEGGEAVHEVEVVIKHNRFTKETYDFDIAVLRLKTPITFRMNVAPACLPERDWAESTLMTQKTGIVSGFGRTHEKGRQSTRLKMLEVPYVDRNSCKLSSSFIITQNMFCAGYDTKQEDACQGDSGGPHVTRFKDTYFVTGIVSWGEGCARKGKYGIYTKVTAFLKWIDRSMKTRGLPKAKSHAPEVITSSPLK
T1 sequence (P00742 41-179 limits assumed): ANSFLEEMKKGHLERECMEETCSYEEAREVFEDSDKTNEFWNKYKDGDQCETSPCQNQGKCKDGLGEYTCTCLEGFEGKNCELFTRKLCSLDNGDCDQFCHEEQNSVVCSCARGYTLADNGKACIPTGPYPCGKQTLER
Assay: Unaccelerated ZPI–FXa reactions: kinetics and stoichiometry of inhibition
Format: biochemical
Details: not given
Description: (§1) Apparent second-order rate constants for unaccelerated and H50-accelerated ZPI–FXa reactions were measured in the absence and presence of the optimal H50 concentration under pseudo–first-order conditions by analyzing full ZPI–FXa reaction progress curves over the ZPI concentration range of 10 to 900 nM with ∼0.5 nM FXa. Full reaction progress curves were also measured for ZPI–FXa reactions in the presence of PZ equimolar with ZPI, 25 μM lipid, and 5 mM CaCl2, as a function of the ZPI concentration in the range of 10 to 40 nM. Identical reaction mixtures were quenched at varying reaction times with substrate, and the time course of protease inactivation was measured from the decrease in initial rates of substrate hydrolysis. The first-order rate of decrease in protease activity with time was computer fit by a single exponential decay function with a nonzero end point and kobs obtained from the fitted exponential decay constant. Apparent second-order association rate constants (ka,app) were obtained from the slopes of linear plots of kobs versus the ZPI concentration according to the equation, kobs=kd+ka,app × [ZPI]0
(§2) In which kd represents the rate constant for ZPI–FXa complex dissociation and [ZPI]o is the total ZPI concentration. kd was fixed at the experimentally determined value of 10^−4 s^−1 for WT and ZPI mutants as described ([18]).
(§3) Fixed concentrations of FXa (50–100 nM FXa) were reacted with increasing concentrations of ZPI, ranging from a approximately threefold to sevenfold molar excess, in the absence of cofactors or in the presence of either 1 μM H50 or PZ equimolar with ZPI, 25 μM lipid, and 5 mM CaCl2, in kinetics buffer at 25 °C in reaction volumes of 50 μl. After allowing sufficient time to reach a reaction end point, based on measured second-order associate rate constants (∼5–30 min), remaining proteolytic activity was measured by reacting an aliquot (5–20 μl) of the reaction mixtures with 1 ml of 100 μM Spectrozyme fXa (American Diagnostica) containing 50 μg/ml Polybrene and 5 mM EDTA and monitoring the rate of absorbance change at 405 nm. The apparent SI was determined from the fitted abscissa intercept of a linear plot of residual protease activity against the molar ratio of inhibitor to protease ([18]). Because the ZPI–PZ complex dissociates to a small extent over the reaction time, apparent SIs depend on the time of incubation. To correct for such complex dissociation, apparent SIs were multiplied by the factor, exp (−kd × t), where kd is the measured complex dissociation rate constant of 10^−4 s^−1 and t the fixed reaction time. Simulations verified the validity of this correction for small extents of dissociation. Reported SIs are average values of at least two independent measurements at different reaction times.

SI [moles ZPI/mole FXa]	ka,app × SI	ka,app × SI relative to WT	Molecule
2.6 ± 0.1	1.1 ± 0.1 × 10^4 M^−1 s^−1	(0.69)	B1
2.4 ± 0.5	1.3 ± 0.4 × 10^4 M^−1 s^−1	(0.81)	B2
2.9 ± 0.2	1.7 ± 0.1 × 10^4 M^−1 s^−1	(1.1)	B3
2.4 ± 0.2	1.8 ± 0.2 × 10^4 M^−1 s^−1	(1.1)	B4
2.8 ± 0.4	1.6 ± 0.3 × 10^4 M^−1 s^−1	(1)	B5
2.7 ± 0.2	1.0 ± 0.2 × 10^4 M^−1 s^−1	(0.62)	B6
4.0 ± 0.8	4.5 ± 1.8 × 10^3 M^−1 s^−1	(0.28)	B7

Same assay, conditions: absence of PZ, 2.5 mM CaCl2, pH 7.4, 25 °C

ka,app	Molecule
4.1 ± 0.2 × 10^3 M^−1 s^−1	B1
5.4 ± 0.3 × 10^3 M^−1 s^−1	B2
5.8 ± 0.1 × 10^3 M^−1 s^−1	B3
7.3 ± 0.4 × 10^3 M^−1 s^−1	B4
5.6 ± 0.3 × 10^3 M^−1 s^−1	B5
3.8 ± 0.3 × 10^3 M^−1 s^−1	B6
1.1 ± 0.2 × 10^3 M^−1 s^−1	B7

Target: T1, FXa
Assay: H50 heparin-accelerated ZPI–FXa reactions: kinetics and stoichiometry of inhibition
Format: biochemical
Details: 1 μM H50
Description: Heparin accelerating effects on the kinetics of ZPI–FXa reactions were evaluated as a function of heparin concentration under pseudo–first-order conditions (i.e., with a large molar excess of inhibitor over protease) by incubating reaction mixtures of 100 μl containing 70 nM ZPI and ∼0.5 nM FXa in the absence or presence of varying levels of H50 ranging from 10^−9 to 10^−4 M in 20 mM Tris buffer (pH 7.4), 0.1 M NaCl, 0.1% PEG 8000, 0.1 mg/ml BSA, and 2.5 mM CaCl2 at 25 °C for reaction times of 2 to 5 min. Reactions were quenched by adding 1 ml of 50 μM Pefafluor FXa substrate (Centerchem, Inc) containing 50 μg/ml polybrene and 5 mM EDTA. The initial linear rate of substrate hydrolysis was monitored at an excitation wavelength of 380 nm and an emission wavelength of 440 nm. The observed pseudo–first-order rate constant for reactions (kobs) was calculated from the equation, kobs=In([vo-v∞]/[vt-v∞])/t
where vt and v∞ are the initial velocities of protease hydrolysis of the substrate after reaction with ZPI for the fixed reaction time and after reaching the reaction end point, respectively, vo is the velocity measured in control reactions without ZPI, and t is the fixed reaction time. The dependence of kobs on heparin concentration was computer fit by nonlinear least squares analysis by the ternary complex bridging model equation ([10]).
as §1, §2
as §3, with “Simulations verified the validity of this correction for small extents of dissociation. Reported SIs are average values of at least two independent measurements at different reaction times.” left out

SI [moles ZPI/mole FXa]	ka,app × SI	ka,app × SI relative to WT	Molecule
1.7 ± 0.1	8.5 ± 0.6 × 10^5 M^−1 s^−1	(0.71)	B1
2.5 ± 0.4	2.9 ± 0.8 × 10^5 M^−1 s^−1	(0.24)	B2
2.2 ± 0.3	5.4 ± 0.9 × 10^5 M^−1 s^−1	(0.45)	B3
1.8 ± 0.1	5.3 ± 0.9 × 10^5 M^−1 s^−1	(0.44)	B4
2.4 ± 0.1	1.2 ± 0.2 × 10^6 M^−1 s^−1	(1)	B5
1.9 ± 0.2	3.5 ± 0.5 × 10^5 M^−1 s^−1	(0.29)	B6
4.1 ± 0.6	7.6 ± 1.3 × 10^4 M^−1 s^−1	(0.06)	B7

Same assay, conditions: 1 μM H50, 2.5 mM CaCl2, pH 7.4, 25 °C

ka,app	Molecule
5.0 ± 0.2 × 10^5 M^−1 s^−1	B1
1.2 ± 0.1 × 10^5 M^−1 s^−1	B2
2.4 ± 0.1 × 10^5 M^−1 s^−1	B3
2.9 ± 0.3 × 10^5 M^−1 s^−1	B4
5.1 ± 0.4 × 10^5 M^−1 s^−1	B5
1.8 ± 0.1 × 10^5 M^−1 s^−1	B6
1.8 ± 0.1 × 10^4 M^−1 s^−1	B7

Same assay, conditions: ratio of heparin-accelerated to unaccelerated ka,app × SI

H50 rate enhancement [fold]	Molecule
~22	B2
~32	B3
~29	B4
~75	B5
~35	B6
~17	B7

Target: T1, FXa
Assay: PZ-accelerated ZPI–FXa reactions: kinetics and stoichiometry of inhibition
Format: biochemical
Details: PZ-accelerated
Description: as §1, §2, §3

SI [moles ZPI/mole FXa]	ka,app × SI	ka,app × SI relative to WT	Molecule
2.6 ± 0.3	1.5 ± 0.2 × 10^7 M^−1 s^−1	(0.34)	B2
2.7 ± 0.1	2.6 ± 0.1 × 10^7 M^−1 s^−1	(0.59)	B3
3.3 ± 0.1	3.2 ± 0.4 × 10^7 M^−1 s^−1	(0.73)	B4
4.0 ± 0.3	4.4 ± 0.3 × 10^7 M^−1 s^−1	(1.0)	B5
2.9 ± 0.2	2.7 ± 0.6 × 10^7 M^−1 s^−1	(0.61)	B6
6.6 ± 0.4	2.7 ± 0.4 × 10^7 M^−1 s^−1	(0.61)	B7

Same assay, conditions: equimolar PZ, 25 μM phospholipid, 5 mM CaCl2, pH 7.4, 25 °C

ka,app	Molecule
5.6 ± 0.2 × 10^6 M^−1 s^−1	B2
9.5 ± 0.1 × 10^6 M^−1 s^−1	B3
9.8 ± 1.0 × 10^6 M^−1 s^−1	B4
10.9 ± 0.1 × 10^6 M^−1 s^−1	B5
9.4 ± 1.4 × 10^6 M^−1 s^−1	B6
4.1 ± 0.3 × 10^6 M^−1 s^−1	B7

Same assay, conditions: ratio of PZ-accelerated to unaccelerated ka,app × SI

PZ enhancement	Molecule
greatly abrogated the acceleration	B1
1153	B2
1524	B3
1778	B4
2750	B5
2700	B6
6000	B7
